Laboratory results published in US20180371086A1.

B1: PGT121.56 (antibody, human IgG1, lambda)
heavy: QMQLQESGPGLVKPSETLSLTCSVSGASISDSYWSWIRRSPGKGLEWIGYVHKSGDTNYSPSLKSRVNLSLDTSKNQVSLSLVAATAADSGKYYCARTLHGRRIYGIVAFNEWFTYFYMDVWGNGTQVTVSSASTKGPSVFPLAPSSKSTSGGTAALGCLVKDYFPEPVTVSWNSGALTSGVHTFPAVLQSSGLYSLSSVVTVPSSSLGTQTYICNVNHKPSNTKVDKKVEPKSCDKTHTCPPCPAPELLAGPDVFLFPPKPKDTLMISRTPEVTCVVVDVSHEDPEVKFNWYVDGVEVHNAKTKPREEQYNSTYRVVSVLTVLHQDWLNGKEYKCKVSNKALPLPEEKTISKAKGQPREPQVYTLPPSREEMTKNQVSLTCLVKGFYPSDIAVEWESNGQPENNYKTTPPVLDSDGSFFLYSKLTVDKSRWQQGNVFSCSVLHEALHSHYTQKSLSLSPGK
light: not shown
B2: PGT121.60 hIgG1/hLambda (antibody)
heavy: QMQLQESGPGLVKPSETLSLTCSVSGASISDSYWSWIRRSPGKGLEWIGYVHKSGDTNYNPSLKSRVHLSLDTSKNQVSLSLTGVTAADSGKYYCARTLHGRRIYGIVAFNEWFTYFYMDVWGTGTQVTVSSASTKGPSVFPLAPSSKSTSGGTAALGCLVKDYFPEPVTVSWNSGALTSGVHTFPAVLQSSGLYSLSSVVTVPSSSLGTQTYICNVNHKPSNTKVDKKVEPKSCDKTHTCPPCPAPELLAGPDVFLFPPKPKDTLMISRTPEVTCVVVDVSHEDPEVKFNWYVDGVEVHNAKTKPREEQYNSTYRVVSVLTVLHQDWLNGKEYKCKVSNKALPLPEEKTISKAKGQPREPQVYTLPPSREEMTKNQVSLTCLVKGFYPSDIAVEWESNGQPENNYKTTPPVLDSDGSFFLYSKLTVDKSRWQQGNVFSCSVLHEALHSHYTQKSLSLSPGK
light: not shown

What was measured:
Assay in all cases: cell-based or functional assay
[1] = molecular target: Env of 92 subtype B viruses
[2] = molecular target: 22 primary HIV-1 isolates or clones (mean over all viruses of Table 13)
[3] = molecular target: HIV-1 Env (gp120) of 4 primary HIV-1 isolates or molecular clones on infected CEM-NKr-CCR5-LucR CD4 T cells

| Binder | Coverage (%) [1] [%] | Median IC95 (neutralization) [1] [µg/mL] | EC50 (µg/mL), killing of HIV-infected cells (Mean; mean over all viruses) [2] [µg/mL] | Emax, killing of HIV-infected cells (Mean; mean over all viruses) [2] [%] | EC50 of killing infected cells, median [3] [µg/mL] | proportion of infected cells killed (Emax), median [3] [%] |
| --- | --- | --- | --- | --- | --- | --- |
| B1 | 62 | 0.265 | – | – | – | – |
| B2 | 59.8 | 0.177 | 1.03 | 56 | > 100 | 18 |
